Source: article PMC2796082
Like-named read-outs stand apart in the source and are kept apart here.

T1: TGF-β3
T1 sequence (P10600 301-412, species assumed, looked up): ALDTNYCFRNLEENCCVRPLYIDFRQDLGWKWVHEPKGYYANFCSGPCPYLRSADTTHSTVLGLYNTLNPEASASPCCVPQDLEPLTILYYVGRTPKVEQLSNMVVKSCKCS

T2: TGF-β2
T2 sequence (P61812 303-414, species assumed, looked up): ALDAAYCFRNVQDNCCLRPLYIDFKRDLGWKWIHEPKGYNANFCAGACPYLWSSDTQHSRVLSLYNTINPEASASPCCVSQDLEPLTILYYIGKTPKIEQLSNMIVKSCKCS


Columns and labels:
Experiment in all cases: SPR
[1] = target: TGF-β1
Sequence of TGF-β1 (P01137 279-390): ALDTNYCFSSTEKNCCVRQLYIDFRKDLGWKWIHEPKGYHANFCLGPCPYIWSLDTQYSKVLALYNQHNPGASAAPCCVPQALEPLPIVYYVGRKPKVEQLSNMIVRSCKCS

[2] = target: T1, TGF-β3
[3] = target: T2, TGF-β2
[4] = target: T2, TGF-β2; remark: listed apart in the source
[5] = target: TGF-β1; remark: listed apart in the source
[6] = target: T1, TGF-β3; remark: listed apart in the source

| Kd [1] [nM] | Kd [2] [nM] | Kd [3] [nM] | Kd [4] [nM] | Kd [5] [nM] | Kd [6] [nM] | Binder |
| --- | --- | --- | --- | --- | --- | --- |
| 1900 | 5800 | – | – | – | – | Sol Δ10, soluble betaglycan endoglin-like domain (domain or fragment) GPEPSTRCELSPINASHPVQALMESFTVLSGCASRGTTGLPREVHVLNLRSTDQGPGQRQREVTLHLNPIASVHTHHKPIVFLLNSPQPLVWHLKTERLAAGVPRLFLVSEGSVVQFPSGNFSLTAETEERNFPQENEHLLRWAQKEYGAVTSFTELKIARNIYIKVGEDQVFPPTCNIGKNFLSLNYLAEYLQPKAAEGCVLPSQPHEKEVHIIELITPSSNPYSAFQVDIIVDIRPAQEDPEVVKNLVLILKCKKSVNWVIKSFDVKGNLKVIAPNSIGFGKESERSMTMTKLVRDDIPSTQENLMKWALDNGYRPVTSYTMAPVANRFHLRLENNEEMRDEEVHTIPPELRILLDPDHPPALDNPLFPGEGSPNGGLPFPFPD |
| 95 | 143 | 36 | – | – | – | Recombinant soluble betaglycan (receptor, glycoprotein, devoid of GAG chains) GPEPSTRCELSPINASHPVQALMESFTVLSGCASRGTTGLPREVHVLNLRSTDQGPGQRQREVTLHLNPIASVHTHHKPIVFLLNSPQPLVWHLKTERLAAGVPRLFLVSEGSVVQFPSGNFSLTAETEERNFPQENEHLLRWAQKEYGAVTSFTELKIARNIYIKVGEDQVFPPTCNIGKNFLSLNYLAEYLQPKAAEGCVLPSQPHEKEVHIIELITPSSNPYSAFQVDIIVDIRPAQEDPEVVKNLVLILKCKKSVNWVIKSFDVKGNLKVIAPNSIGFGKESERSMTMTKLVRDDIPSTQENLMKWALDNGYRPVTSYTMAPVANRFHLRLENNEEMRDEEVHTIPPELRILLDPDHPPALDNPLFPGEGSPNGGLPFPFPDIPRRGWKEGEDRIPRPKQPIVPSVQLLPDHREPEEVQGGVDIALSVKCDHEKMVVAVDKDSFQTNGYSGMELTLLDPSCKAKMNGTHFVLESPLNGCGTRHRRSTPDGVVYYNSIVVQAPSPGDSSGWPDGYEDLESGDNGFPGDGDEGETAPLSRAGVVVFNCSLRQLRNPSGFQGQLDGNATFNMELYNTDLFLVPSPGVFSVAENEHVYVEVSVTKADQDLGFAIQTCFLSPYSNPDRMSDYTIIENICPKDDSVKFYSSKRVHFPIPHAEVDKKRFSFLFKSVFNTSLLFLHCELTLCSRKKGSLKLPRCVTPDDACTSLDATMIWTMMQNKKTFTKPLAVVLQVDYKENVPSTKDSSPIPPPPPQIFHGLDTLTV |
| 9700 | 5800 | 2600 | 2200 | 2900 | 4400 | Sol Δ11, soluble betaglycan uromodulin-like domain (domain or fragment) GPEPSTRCELSPINASHPVQAIPRRGWKEGEDRIPRPKQPIVPSVQLLPDHREPEEVQGGVDIALSVKCDHEKMVVAVDKDSFQTNGYSGMELTLLDPSCKAKMNGTHFVLESPLNGCGTRHRRSTPDGVVYYNSIVVQAPSPGDSSGWPDGYEDLESGDNGFPGDGDEGETAPLSRAGVVVFNCSLRQLRNPSGFQGQLDGNATFNMELYNTDLFLVPSPGVFSVAENEHVYVEVSVTKADQDLGFAIQTCFLSPYSNPDRMSDYTIIENICPKDDSVKFYSSKRVHFPIPHAEVDKKRFSFLFKSVFNTSLLFLHCELTLCSRKKGSLKLPRCVTPDDACTSLDATMIWTMMQNKKTFTKPLAVVLQVDYKENVPSTKDSSPIPPPPPQIFH |
